Test results from patent US20250051455A1 (Hoffmann-La Roche, published 2025).

Molecular target: T1, recombinant soluble human HLA-G β2M MHC class I complex, monomer (human)
T1 construct: His tagged; biotinylated where coated on streptavidin plates, non-biotinylated in SPR; also called HLA-G-0003; wt HLA-G (monomer)
Assay: SPR Biacore T200, antibody captured via anti-Fc, HLA-G monomer as analyte, 25 C
Description: Binding kinetics of anti-HLA-G antibodies to human HLA-G, human HLA-G degrafted and human HLA-A2 were investigated by surface plasmon resonance using a BIACORE T200 instrument (GE Healthcare). All experiments were performed at 25° C. using PBS Buffer (pH 7.4+0.05% Tween20) as running buffer and PBS Buffer (+0.1% BSA) as dilution buffer. Anti-human Fc (JIR009-005-098, Jackson) or anti-rat Fc (JIR112-005-071, Jackson) or anti-Mouse Fc (JIR115-005-071, Jackson) antibodies were immobilized on a Series S CM5 Sensor Chip (GE Healthcare) at pH 5.0 by using an amine coupling kit supplied by GE Healthcare. Anti-HLA-G antibodies were captured on the surface leading to a capturing response of 50-200 RU. HLA-G molecules were injected for 180 s at 30 μl/min with concentrations from 2.5 up to 800 nM (2×1:2 and 4×1:3 dilution series) onto the surface (association phase). The dissociation phase was monitored for 300-600 sec by washing with running buffer. The surface was regenerated by injecting H3PO4 (0,85%) for 60+30 seconds for anti-human Fc capturing antibodies, glycine pH1,5 for 60 seconds and glycine pH2,0 for 60 seconds for anti-rat Fc capturing antibodies, H3PO4 (0,85%) for 80+60 seconds for anti-mouse Fc capturing antibodies. Bulk refractive index differences were corrected by subtracting the response obtained from a mock surface. Blank injections were subtracted (double referencing). The derived curves were fitted to a 1:1 Langmuir binding model using the BIAevaluation software.
The above table summarizes the antibody affinities and t½ values against wt and degrafted HLA-G as assessed by Surface plasmon resonance (Biacore) analysis. Binding kinetics of anti-HLA-G antibodies to human HLA-G and human HLA-G degrafted were investigated by surface plasmon resonance using a BIACORE T200 instrument (GE Healthcare). All experiments were performed at 25° C. using PBS Buffer (pH 7.4+0.05% Tween20) as running buffer and PBS Buffer (+0.1% BSA) as dilution buffer. Anti-human Fc (JIR009-005-098, Jackson) or anti-rat Fc (JIR112-005-071, Jackson) or anti-Mouse Fc (JIR115-005-071, Jackson) antibodies were immobilized on a Series S CM5 Sensor Chip (GE Healthcare) at pH 5.0 by using an amine coupling kit supplied by GE Healthcare.

Kd: 24 nM
koff: 0.002 s⁻¹
kon: 83000 M⁻¹ s⁻¹
t 1/2: 6 min
B1: HLA-G-0031-0104 (humanized variant of HLA-G-0031) (antibody, V domains shown)
VH: QVQLVQSGAEVKKPGASVKVSCKASGYTFTDYWVSWVRQAPGQRLEWMGEISPNSGASNFDENFQGRVTITRDTSASTAYMELSSLRSEDTAVYYCTRSSHGSFRWFAYWGQGTLVTVSS
VL: DIQMTQSPSSLSASVGDRVTITCRASSSVSSNHLHWYQQKPGKAPKFLIYSTSQRASGVPSRFSGSGSGTEFTLTISSLQPEDFATYYCQQGSSNPYTFGQGTKLEIK
notes: Humanized variant (VH framework IGHV1-3, VL framework IGKV1-17 with back-mutation R46F, Kabat)
